Experiments:
[1] = target: T1, soluble human insulin receptor-immunoglobulin heavy chain chimera (human, UniProt P06213 28-956); assay: phage ELISA ratios compared
T1 construct: extracellular domain; Heterotetramer; also called IR; sIR-Fc; not shown: immunoglobulin heavy chain constant domains replacing the transmembrane and intr

[2] = target: T2, Soluble IGF-1R (R&D Systems, Cat. # 391-GR) (UniProt P08069 31-935, limits assumed); assay: phage ELISA ratios compared
T2 construct: extracellular domain; bought; also called sIGF-1R

Binder	IR/IGF-1R ratio comparison [1]	IGF-1R/IR ratio comparison [2]
VNQSGSIHENFYDWFERQVSHQRGVR [H2CA-4-F10-IGFR]	0.2	5.9
APDPSDFQEIFYDWFVRQVSRMPGGG [H2CA-1-A3-IGFR]	0.2	5.1
SSCDGAGHESFYEWFVRQVSGCRSV [H2CA-3-C8-IGFR]	0.2	4.8
RAGSSDFHEDFYEWFVRQVSLSLKGK [H2CA-2-B9-IGFR]	0.2	4.2
QAVQPGFHEEFYDWFVRQVSTGVGGG [H2CA-4-H4-IGFR]	0.2	4.2
GFREGNFYEWFQAQVT [E4Dα-4-H2-IR]	0.2	4.1
SSIGGGFHENFYDWFSRQLSQSPPLK [H2CA-4-F7-IGFR]	0.2	4.1
QSPVGSSHEDFYDWFFRQVAQSGAHQ [H2CA-3-D6-IGFR]	0.3	4
NYRRQVFNGNFYDWFDRQVFSLVTPG [H2CA-3-D8-IGFR]	0.3	4
TLDGGSFEEQFYDWFVRQLSYRTNPD [H2CA-4-G11-IGFR]	0.3	3.9
FYVQQWGHENFYDWFDRQVSQSGGAG [H2CA-4-F1-IGFR]	0.3	3.8
LRRQAPVEENFYDWFVRQVSGDRVGG [H2CA-3-D7-IGFR]	0.3	3.7
RCGRELYHSTFYDWFDRQVAGRTCPS [H2CA-1-A7-IGFR]	0.3	3.7
CCLLCRFQQNFYDWFVCQGISRLRPL [H2CA-2-B4-IGFR]	0.3	3.6
PPLASDLDVQFYGWFVQQVSPPGRGG [H2CA-2-B3-IGFR]	0.3	3.6
GAPVDQLHEDFYDWFVRQVSQAATG [H2CA-2-B2-IGFR]	0.3	3.5
GFREGSFYDWFQAQVT [E4Dα-2-D11-IR]	0.3	3.4
SQAGSAFYAWFDQVLRTVHSA [20E2Bβ-4-G6-IR]	–	3.3
RGAVAGFHDQFYDWFDRQVSRVHKFG [H2CA-4-H9-IGFR]	–	3
AICDAGFHEHFYDWFALQVSDCGRQS [H2CA-2-B11-IGFR]	0.3	3
LGYQEPFQQNFYDWFVRQVSGAENAG [H2CA-3-E8-IGFR]	0.3	2.9
EAASLGSQDRNFYDWFVRQVV [A6S-2-D11-IR]	0.4	2.8
VERSASSQDGNFYDWFVVQIR [A6S-2-D1-IR]	0.4	2.6
TSEVQRRSQDNFYDWFVAQVA [A6S-3-E2-IR]	0.4	2.5
HLADGQFHEKFYDWFERQISSRCNDC [H2CA-3-E11-IGFR]	0.5	–
FRTLAAQHDSFYDWFDRQVSGAAGER [H2CA-3-C11-IGFR]	0.5	2.1
TFYSCLASLLTGTPQPNRGPWERCR [20C-3-G3-IGFR]	< 0.1	27
FFYDCLAALLQGVARYHDLCAVEIT [20C-4-C7-IGFR]	< 0.1	21.8

Binder	IR/IGF-1R ratio comparison [1]	IGF-1R/IR ratio comparison [2]
CCTTEMVVMDARDDPFYHKLSELVTGG [B6Hα-1-B5-IR]	0	–
RGQSDAFYSGLWALIGLSDG [R20β-4-A6-IR]	0.1	17.3
GVRAMSFYDALVSVLGLGPSG [20E2B-1-A6-IGFR]	0.1	16.8
RLFYCGIQALGANLGYSGCV [R20α-4-20A12-IR]	0.1	16.6
LQPCSGFYECIERLIGVKLSG [20E2Bβ-4-G7-IR]	–	15.8
LKDGFYDYFWQRLHLGS [NNRPγ-4-B11-IR]	0.1	15.5
VEGRGLFYDLLRQLLARRQNG [20E2B-3-C6-IGFR]	0.1	14.8
RGCNDDGGKGWSDDPFYHKLSELICGG [B6Hα-1-A2-IR]	0.1	–
QGGSASFYDAIDRLLRMRIGG [20E2A-4-F11-IGFR]	0.1	14.6
RCEEKQAEVGPSSDPFYHKMSELLGCR [B6Hα-3-E9-IR]	–	14.2
KLHNLMFYYGLQRLVWGAGLG [20E2B-4-H3-IGFR]	0.1	13.9
SSYGCDGFYLMLFSLGLVASQELEC [20C-3-A1-IGFR]	–	13.7
PDLHKGFYAQLAQLIRGQLLS [20E2B-3-E3-IGFR]	0.1	13.1
FYDAIDQLVRGSARAGGTRD [R20α-3-20E2-IR]	0.1	12.9
RGMKEEVLVGGSTDPFYHKLSELLQGS [B6Hα-3-F11-IR]	–	11.7
GGTEVDFYRALERLVRGQLGL [20E2B-3-D8-IGFR]	–	11.3
LRIANLFYQRLWDLAFGGGG [20E2B-3-E8-IGFR]	–	11.1
QPAPDGFYSALMKLIGRGGVS [20E2B-3-C8-IGFR]	–	8.9
QPDHSYFYSLLQELVGSEERL [20E2B-4-F9-IGFR]	–	7.7
RGIVAMVEATEVGSDHDPFYHKLSELVQGS [B6Hα-2-C7-IR]	0.1	–
IIGGFYSYFNSVLRLGT [NNRPγ-4-A1-IR]	–	6
GCVVEWQKWHGASDPFYHKLSELGGCS [B6Hα-3-F10-IR]	–	4.6
GRTMAVMAAGGPDDPFYHKLSELVQGG [B6Hα-2-D6-IR]	0.2	–
MMVVDGFYDALHQLVVAQSLG [20E2A-3-D10-IGFR]	–	3.9
GGTKAVAKVGTRDDPFYHKLSELLQGS [B6Hα-4-G8-IR]	–	3.6
YRGMLVLGRSSDGAGKVAFERPARIGQTVFAVNFYDWFV [A6L-0-E6-IR]	–	17
YRGMLVLGRISGGAGKAASERPARIGQKVSAVNFYDWFV [A6L-0-H3-IR]	–	13

From US6875741 (Novo Nordisk, dated 2005)
